# Results published in the supplement of paper PMC7125110.
# ± gives the standard error. This sample holds only a part of the variants without activity.
# B1: glmS ribozyme (parent)
# chain: AUAAAAGCGCCAGAACUACAGAAAUGUAGUUGACGAGGAGGAGGUUUAUCGAAUUUUCGGCGGAUGCCUCCAAA
# Variants of: B1
# Test: self-cleavage kobs at 10000 uM GlcN6P; higher = faster cleavage; RNA array
# Conditions: with glucosamine-6-phosphate
# Summary of the method: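 On sequenced MiSeq chips, barcoded ribozyme variants were made in situ by E. coli RNA polymerase and followed at 37 °C through a hybridised Cy3 probe. Glucosamine-6-phosphate was flowed in at 40 μM to 10 mM in HEPES/KCl/Mg(OAc)2 buffer. Exponential fits to normalised per-tile medians gave kobs, and weighted Michaelis–Menten fits gave kcat and KM.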
row,Variant,self-cleavage kobs at 10000 uM GlcN6P [s⁻¹]
1,AUAAAAGCGCCUCAACUACAGAAAUGUAGUUGACGAGGAGGAGGUUUAUCGUAUUUUCGACGGCUGCCUCCAAA [A12U G13C A52U G60A A64C],< 1e-05
2,AUAAAAGCGCCUGAACUACAGAAAUGUAGAUGACGAGGUGGAGGUUUAUCGAAUCUUCGGCGGAUGCCUCCAAA [A12U U30A A39U U55C],0.0143 ± 0.0028
3,AUAAAAGCGCCAGCACUACAGAAAUGUAGUUGACGAGGAGGAGGUUUAUCUAAUUUUCGGCGGAUGCCUCCAAA [A14C G51U],< 1e-05
4,AUAAAAGCGCCACAACUACAGAAAUGUAGUUGACGAGGAGGAGGUUAAUCGAAUUUUCGGCGGAUGCCUCCAAA [G13C U47A],7.19e-05 ± 9.5e-06
5,AUAAAAGCGCCACAACUACAGAAAUGUAGCUGACGAGGAGGAGGUUAAUCGAAUUUUCGGCGGAUGCCUCCAAA [G13C U30C U47A],8.1e-05 ± 2.1e-05
6,AUAAAAGCGCCAAAACUACAGAAAUGUAGUUGACGAGGAGGAGGUUUAUCUAAUUUUCGUCGGAUGCCUCCAAA [G13A G51U G60U],< 1e-05
7,AUAAAAGCGCCAGCACUACAGAAAUGUAGUUGACGAGGAGGCGGUGUAUCGGAUUUUCGGCGGAUGCCUCCAAA [A14C A42C U46G A52G],< 1e-05
8,AUAAAAGCGCCAGGGCUACAGAAAUGUAGUUGACGAGGAGGAGGUUUCUCGAAUUUUCGGCGGAUGCCUCCAAA [A14G A15G A48C],0.00148 ± 0.00029
9,AUAAAAGCGCCUGAACUACAGAAAUGUAGUUGAAGAGGUGGAGGUUUAUCGAAUUUUCGGCGGAUGCCUUCAAA [A12U C34A A39U C70U],< 1e-05
10,AUAAAAGCGCCAGGACUACAGAAAUGUAUUUGACGAGGACGAGGUUUAUCGAAUUUUCGGCGGAUGCCUCCAAA [A14G G29U G40C],0.00075 ± 0.00013
11,AUAAAAGCGCCAGGACUACAGAAAUGUAGUUGACGAGGAGGAGGUUAAUCGAAUUUUCUGCGGAUGCCUUCAAA [A14G U47A G59U C70U],9.51e-05 ± 1.8e-05
12,AUAAAAGCGCCAGGAAUACAGAAAUGUAGUUGACGAGGACGAGGUUUAUCGAAUUUUCGGCGUAUGCCUCCAAA [A14G C16A G40C G63U],< 1e-05
13,AUAAAAGCGCCACAACUACAGAAAUGUAGUUGACGAGGAAGAGGUUUAUCGAAUUUUCGGCGGAUGCCUCCAAA [G13C G40A],2.64e-05 ± 9.8e-06
14,AUAAAAGCGCCACAACUACAGAAAUGUAGUUGACGAGGAGGAAGUUUAUCGAAUUUUCGGCGGAUGCCUCCAAA [G13C G43A],< 1e-05
15,AUAAAAGCGCCAGACCUACAGAAAUGUAGUUGACGCGGAGGAGGUUUAUCGAAUUUUCGGCGGAUGACUCCAAA [A15C A36C C67A],< 1e-05
16,AUAAAAGCGCCAGCACUACAGAAAUGUAGUUGGCGAGGAGGAGGUUUAUCGAAUUUUGGGCGGACGCCUCCAAA [A14C A33G C58G U65C],< 1e-05
17,AUAAAAGCGCCAUAACUACAGAAAUGUAGUUGACGAGGAAGAGGUUUAUCGAAUUUUCGGCGGAUCCCUCAAAA [G13U G40A G66C C71A],2.79e-05 ± 1.3e-05
18,AUAAAAGCGCCAGCUCUACAGAAAUGUAGUUCACGAGGAGGAGGUUUAUCGAAUUUUUGGCGGAUGCCUCCAAA [A14C A15U G32C C58U],3.19e-05 ± 1.1e-05
19,AUAAAAGCGCCAUAACUACAGAAAUGUAGUUGACGAGGGGGAGGUUUAUCGAAUUUUCGGCGGAUGCUUCCAAA [G13U A39G C68U],0.000334 ± 8.3e-05

row,Variant,self-cleavage kobs at 10000 uM GlcN6P [s⁻¹]
1,AUAAAAGCGCCAGUACUAUAGAAAUGUAGUUGACGAGGAGGAGGUUUAUCGAAUUUUGGGCGGAUGCCUCCAAA [A14U C19U C58G],9.16e-05 ± 2.1e-05
2,AUAAAAGCGCCAUAACUACAGAAAUGUAGUUGACGAGCAGGAGGUUUAUCGAAUUUUUGGUGGAUGCCUCCAAA [G13U G38C C58U C61U],< 1e-05
3,AUAAAAGCGCCACGACUACAGAAAUGUAGUUGACGAGGAGUAGGUUUAUCGAAUUUUCGGCGGAUGCCUCCAAA [G13C A14G G41U],6.44e-05 ± 1.7e-05
4,AUAAAAGCGCCAGUACUACAGAAAUGUAGUUGAUGAGGAGGAGGUUUAUCGAAUUUUCGGCGGAUGCGUCCAAA [A14U C34U C68G],7.15e-05 ± 2.1e-05
5,AUAAAAGCGCCAGCACUACAGAAAUGUAGUUGACGAGGAGGAGGUUGAUCGAACUUUCGGCGGAUGCCUCCAAA [A14C U47G U54C],0.00121 ± 0.00018
6,AUAAAAGCGCCAGUACUACAGAAAUGUAGUUGACCAGGAGAAGGUAUAUCGAAUUUUCGGCGGAUGCCUCCAAA [A14U G35C G41A U46A],< 1e-05
7,AUAAAAGCGCCAGGACUACAGAAAUGUAGUUGACGAGGAGGAUGUUAAUCGAAUUUUAGGCGGAUGACUCCAAA [A14G G43U U47A C58A C67A],7.13e-05 ± 1.3e-05
8,AUAAAAGCGCCACAACUACAGAAAUGUAGUUGACGAGGAGGCGGUUUAUUGAAUUUUCGGCGGAUGCCUCCAAA [G13C A42C C50U],< 1e-05
9,AUAAAAGCGCCAGUAGUACAGAAAUGUAGUUAACGAGGAGGAGGUUUAUCGAAUUGUCGGCGGAUGCCUCCAAA [A14U C16G G32A U56G],0.000337 ± 5e-05
10,AUAAAAGCGCCACAACUACAGAAAUGUAGUUAACGAGGAGGAGGGUUAUCGCAUUUUCGGCGGAUGCCUUCAAA [G13C G32A U45G A52C C70U],< 1e-05
11,AUAAAAGCGCCAGGACUACAGAAAUGUAGUUGACGAGGAGGAGGUUUAUCGAAUUUUUGGCGGAUGCCUCUAAA [A14G C58U C71U],0.00012 ± 2.1e-05
12,AUAAAAGCGCCAGCACUACAGAAAUGUAGUUGACGAGGUGGAGGUUUAUCGAAUUUUCGGCGGAUGGCUCCAAA [A14C A39U C67G],0.000928 ± 0.00017
13,AUAAAAGCGCCAUAACUACAGAAAUGUAGUUGACGAGGAGGAGGUUUAUCGAAAUCUCGGCGGAUGCCUCCAAA [G13U U54A U56C],0.000163 ± 3.3e-05
14,AUAAAAGCGCCAAAACUACAGAAAUGUAAUUGACGAGGAGGAGGUUUAUCGAAUUUUCGGCGUAUGCCUCCAAA [G13A G29A G63U],< 1e-05
15,AUAAAAGCGCCUGAACUACAGAAAUGUAGUUGACGAGGAGGAGGUUUAUCGAAUUUUCAGCGGAUGGCUCCAAA [A12U G59A C67G],4.16e-05 ± 1.6e-05
16,AUAAAAGCGCCAGGACUACAGAAAUGUAGUUGACGAGGAGGAGGUUUAUCGAAAUUUCGGCGGAUGCCUGCAAA [A14G U54A C70G],0.000124 ± 2.6e-05
17,AUAAAAGCGCCAAAAUUACAGAAAUGUAGUUUACGAGGAGGAGGUUUAUCGAAUUUUCGGCGGAUGCCUCCAAA [G13A C16U G32U],0.000302 ± 4.9e-05
18,AUAAAAGCGCCAGUACUACAGAAAUGUAGUUGACGAGGAGGAGGUUUAUGGAAUUUUCGGCAGGUGCCUCCAAA [A14U C50G G62A A64G],0.000115 ± 2.4e-05
